In US20210292393A1 (published 2021):
Changes are numbered by the printed parent chain.

B1: antibody 345 (antibody, V domains shown)
VH: QVQLQESGPGLVKPSQTLSLTCTVSGGSISSGDYYWSWIRQPPGKGLEWIGYIYYSGSTYYNPSLKSRVTISVDTSKNQFSLKLSSVTAADTAVYYCARVGMVDNWNFEGNWFDPWGQGTLVTVSS
VL: QSALTQPRSVSGSPGQSVTISCTGTSSDVGGYNYVSWYQQHPGKAPKLMIYDVSKRPSGVPDRFSGSKSGNTASLTISGLQAEDEADYYCCSYAGSVVFGGGTKLTVL
B2: antibody 329 (antibody, V domains shown)
VH: EVQLVESGGGLVQPGGSLRLSCAASGFTFSSYWMHWVRQAPGKGLVWVSRINSDGSSTSYADSVKGRFTISRDNAKNTLYLQMNSLRAEDTAVYYCAREGIVATITLDYWGQGTLVTVSS
VL: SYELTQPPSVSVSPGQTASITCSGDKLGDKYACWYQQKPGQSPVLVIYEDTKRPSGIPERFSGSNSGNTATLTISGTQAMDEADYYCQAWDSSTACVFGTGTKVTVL
B3: antibody 317 (antibody, V domains shown)
VH: QVQLVQSGAEVKKPGASVKVSCKVSGYTLTELSMHWVRQAPGKGLEWMGGFDPEDGETIYAQKFQGRVTMTEDTSTDTAYMELSSLRSEDTAVYYCASSPAAAGTSQYYYYYGMDVWGQGTTVTVSS
VL: not shown
B4: antibody 331 (antibody, V domains shown)
V domain 1: QITLKESGPTLVKPTETLTLTCSFSGFSLTKTGEAAGWIRQAPGRALEWVTVIFWDDDKRYSPSLQNRISVTKDTSKNQVVLRMTNVARFDTGTYFCWAMGGPGKEYFGQGTLVAVSS
V domain 2: QSVLTQPPSVSGAPGQRVTISCTGTSSSIGPYSDVHWYQHVSGKAPRLLIFGNSNRPSGVPDRFSGSKSGTSASLVIAGLQAEDEADYYCQSYDSSLGEIYVFGTGTTVTVL
B5: antibody 339 (antibody, V domains shown)
V domain 1: B4 V domain 1 with K31R, N67S, I69L, S70T, R83T, G93A, L113Q
V domain 2: B4 V domain 2
B6: antibody 348 (antibody, V domains shown)
VH: QVQLVQSGSELKKPGASVKVSCKASGYTFTSYAMNWVRQAPGQGLEWMGWINTNTGNPTYAQGFTGRFVFSLDTSVSTAYLQISSLKAEDTAVYYCARDHELPNTSSWFGHFEYWGQGTLVTVSS
VL: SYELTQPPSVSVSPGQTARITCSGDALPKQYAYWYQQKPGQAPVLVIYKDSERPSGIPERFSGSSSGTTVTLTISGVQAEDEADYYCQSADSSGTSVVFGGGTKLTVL
B7: antibody 323 (antibody, V domains shown)
VH: QVQLVQSGAEVKKPGASVKVSCKVSGYTLTELSMHWVRQAPGKGLEWMGGFDPEDGETIYAQKFQGRVTMTEDTSTDTAYMELSSLRSEDTAVYYCATSTIFAPGGWFDPWGQGTLVTVSS
VL: QSALTQPASVSGSPGQSITISCTGTSSDVGSYNLVSWYQQHPGKAPKLMIYEVSKRPSGVSNRFSGSKSGNTASLTISGLQAEDEADYYCCSYAGSTHYVFGTGTKVTVL
B8: antibody 344 (antibody, V domains shown)
VH: QVQLVESGGGVVQPGRSLRLSCAASGFTFSSYAMHWVRQAPGKGLEWMAVISYDGSNKYYADSVKGRFTISRDNSKNTLYLQMNSLRAEDTAVYFCAKGYSGSYYEPFDYWGQGTLVTVSS
VL: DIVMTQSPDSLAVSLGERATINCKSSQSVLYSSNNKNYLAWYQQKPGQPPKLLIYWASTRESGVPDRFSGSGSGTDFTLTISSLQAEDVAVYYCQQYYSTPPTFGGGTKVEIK
B9: antibody 326 (antibody, V domains shown)
VH: QITLKESGPTLVKPTQTLTLTCTFSGFSLNTSGVGVGWIRQPPGKALEWLSLIFWNDDKRYSPSLRSRLTITKDTSKNQVVLTMTNMDPVDTATYFCAHRNSGWSLKFDSWGQGSLVTVSA
VL: DIQMTQSPSSVSASVGDRVTITCRARQGISSWLVWYQQKPGKAPKLLIFGASSLQSGVPSRFNASGTGTEFTLTISSLQPEDFATYYCQQADSFPITFGQGTRLEIK
B10: antibody 316 (antibody, V domains shown)
VH: QVHLVESGGGVVQPGRSLRLSCAASGFTLTAYAMHWVRQAPGKRLEWVALISYDGSVKKYADSVKGRITVSGDTSTNTLHLQMNSLRADDTAVYYCVRGGVSGPNSFDLWGQGTMVTVSS
VL: DVVMTQSPLSLPVTLGQPASMSCRSSQSLEYSDGNTYVNWFHQRPGQSPRRLIYKVSYRDSGVPDRFSGSGSGTDFTLQISRVEAEDVGIYYCMQGTHWPVTFGQGTKVEIK
B11: antibody 327 (antibody, V domains shown)
VH: QVQLVESGGGVVQPGRSLRLSCAASGFNLSNYAMHWVRQASGKGLEWVSLISYDGSIKYYTDSVKGRFTVSGDNSKNTLFLQMNSLRPDDSALYYCVRGGVSGPNSFDMWGQGTTVTVSS
VL: B10 VL with M21I, E30V, H42Q, K55Q, Y58I, D60A, T77A, Q79K
B12: antibody 363 (antibody, V domains shown)
VH: EVQLLESGGGLVQPGGSLRLSCAASGFTFSTYAMSWVRQAPGKGLEWVSAISGSGGSTYYADSVKGRFTISRDNSKNTLYLQMNSLRAEDTAVYYCASGYSPDYWGQGTLVTVSS
VL: not shown
B13: antibody 340 (antibody, V domains shown)
VH: QVQLVQSGAEVKKPGASVKVSCKASGYTFTSYDINWVRQATGQGLEWMGWMNPNSGNTGYAQKFQGRVTMTRNTSISTAYMELSSLRSEDTAVYYCARGRYCTGGVCWGDWYFDLWGRGTLVTVSS
VL: QSVLTQPPSVSGAPGQRVTISCTGSSSNIGAGYDVHWYQQLPGTAPKFLIYGNSNRPSGVPDRFSGSKSGTSASLAITGLQAEDEADYYCQSYDSSLSGPVFGGGTKLTVL
B14: antibody 320 (antibody, V domains shown)
VH: QVQLVQSGAEVKKPGASVKVSCKASGYTFTSYGISWVRQAPGQGLEWMGWISAYNGNTNYAQKLQGRVTMTTDTSTRTAYMELRSLRSDDTAVYYCARVGCYYDSSGYSCAENFQHWGQGTLVTVSS
VL: QSVLTQPPSVSGAPGQRVTISCTGSSSNIGAGYDVHWYQQLPGTAPKLLIYGNSNRPSGVPDRFSGSKSGTSASLAITGLQAEDEADYYCQSYDSSLSALFGGGTKLTVL
B15: antibody 522 (antibody, V domains shown)
VH: EVQLVESGGGLVQPGGSLRLSCAASGFNFSSYSMNWVRQAPGKGLEWVSYISSSSSTIYYADSVKGRFTISRDNAKNSLYLQMNSLRDEDTAVYYCARGPEWDIVVVQAENWFDPWGQGTLVTVSS
VL: SYELTQPPSVSVSPGQTARITCSGDALPKQYVYWYQQKPGQAPVLVIYKDSERPSGIPERFSGSSSGTTVTLTISGVQAEDEADYYCQSADSSGTYRGVFGGGTKLTVL
B16: antibody 523 (antibody, V domains shown)
VH: EVQLVESGGVSVQPGGSLRLSCAASGFSFNTYDMHWVRQGTGKGLEWVSGIGTAGDTYYSDSVKGRCTISRDNAKNSLHLLVKSVRAADTAVYYCARGVGGIIDYWGQGTLVTVSS
VL: NFVLSQPHSVSESPGKTVTISCTGNSGSIATKYVQWFQQRPGSAPTTVIYEDNQRPSGVPDRFSGSSDSSSNSASLTISGLKTEDEAHYYCQSYHNRRWVFGGGTKLTVL
B17: antibody 543 (antibody, V domains shown)
VH: EVQLVESGGGLVQPGRSLRLSCAASGFTFHDYAMHWVRQAPGKGLEWVSGISWNSGSIGYADSVKGRFTISRDNAKNSLYLQMNSLRAEDTALYYCAKDTFGSSSWYRGDSYYYYGMDVWGQGTTVTVSS
VL: QSALTQPASVSGSPGQSITISCTGTSSDVGGYNYVSWYQQHPGKAPKLMIYEVSNRPSGVSNRFSGSKSGNTASLTISGLQAEDEADYYCSSYTSSSTQRYVVFGGGTKLTVL
B18: antibody 536 (antibody, V domains shown)
VH: QVQLVESGGGVVQPGRSLRLSCAASGFTFSSYVMHWVRQAPGKGLEWVALISYDGSNKYYADSVKGRFTISRDNSKNTLYLQMNSLRAEDTAVYYCARGGHIRVGRYFDWLISYFDYWGQGTLVTVSS
VL: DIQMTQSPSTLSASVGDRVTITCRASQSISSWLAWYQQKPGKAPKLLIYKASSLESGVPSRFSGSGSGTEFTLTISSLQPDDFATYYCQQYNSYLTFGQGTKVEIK
B19: antibody 504 (antibody, V domains shown)
VH: QVQLVESGGGVVQPGRSLRLSCAASGFTFSSYGMHWVRQAPGKGLEWVAVISYDGSNKYYADSVKGRFTISRDNSKNTLYLQMNSLRAEDTAVYYCAKGGGGGYCSGGSCYSHYFDYWGQGTLVTVSS
VL: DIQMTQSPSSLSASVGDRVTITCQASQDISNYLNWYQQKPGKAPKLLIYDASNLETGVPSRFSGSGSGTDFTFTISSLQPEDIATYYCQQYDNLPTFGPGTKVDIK
B20: antibody 527 (antibody, V domains shown)
VH: QLQLQESGPGLVKPSETLSLTCTVSGGSISSSSYYWGWIRQPPGKGLEWIGSIYYSGSTYYNPSLKSRVTISVDTSKNQFSLKLSSVTAADTAMYYCASHVVVIASSYWCFDLWGRGTLVTVSS
VL: QSALTQPASVSGSPGQSITISCTGTSSDVGGYNYVSWYQQHPGKAPKLMIYDVSNRPSGVSNRFSGSKSGNTASLTISGLQAEDEADYYCSSYTSISTWVFGGGTKLTVL
B21: antibody 537 (antibody, V domains shown)
VH: QVQLQQWGAGLLKPSETLSLTCAVYGGSFSGYYWSWIRQPPGKGLEWIGEINHSGSTNYNPSLKSRVTISVDTSKNQFSLKLSSVTAADTAVYYCARGLYYDMGGGFDYWGQGTLVTVSS
VL: not shown
B22: antibody 533 (antibody, V domains shown)
VH: GVQLVESGGVVVQPGGSLRLSCAASGFSFDDYTMHWVRQAPGKGLEWVSLVSWDGGTTYYTDSVKGRFTISRDNSKNSLYLQMNSLRTEDTALYFCAKDSGRIVPAATFDYWGQGTLVTVSS
VL: DIQMTQSSSSLSASVGDRVTITCRASQDISNYLAWFQQKPGKAPKSLIYAASSLQSGVPSKFSGSGSGTDFTLTISSLQPEDFATYYCQQYYTYPLTFGGGTKVEIK
B23: antibody 509 (antibody, V domains shown)
VH: B11 VH with N31S, P88A, M109L
VL: B10 VL with M21I, E30V, H42Q, Y58I, D60A, T77A, Q79K, I90V
B24: antibody 517 (antibody, V domains shown)
VH: B11 VH with P88A
VL: B10 VL with M21I, E30V, H42Q, K55Q, Y58I, D60A, T77A, Q79K, I90V

Each binder was assayed against SARS-CoV-2 full length spike protein (wild type) (SARS-CoV-2, UniProt P0DTC2 14-1208).

Point of comparison: B10, “median fluorescence intensity fold over isotype” value 442 fold over isotype control. Against it:
- B1 — higher, 562 fold over isotype control
- B2 — higher, 497 fold over isotype control
- B3 — higher, 890 fold over isotype control
- B4 — higher, 850 fold over isotype control
- B5 — higher, 874 fold over isotype control
- B6 — higher, 869 fold over isotype control
- B7 — higher, 994 fold over isotype control
- B8 — lower, 404 fold over isotype control
- B9 — lower, 193 fold over isotype control
- B11 — lower, 413 fold over isotype control
- B12 — higher, 1030 fold over isotype control
- B13 — higher, 547 fold over isotype control
- B14 — higher, 1200 fold over isotype control

The binders below were run against SARS-CoV-2 full length spike protein (wild-type), conjugated to optically encoded beads (SARS-CoV-2, UniProt P0DTC2 14-1208).

Point of comparison: B21, “median fluorescence fold over isotype” value 787 fold over isotype. Against it:
- B15 — lower, 433 fold over isotype
- B16 — lower, 30.8 fold over isotype
- B17 — higher, 802 fold over isotype
- B18 — lower, 643 fold over isotype
- B19 — lower, 709 fold over isotype
- B20 — lower, 148 fold over isotype
- B22 — lower, 23.4 fold over isotype
- B23 — lower, 496 fold over isotype
- B24 — lower, 434 fold over isotype
